# From IntAct's records for PubMed 19696741
# B1: Carboxypeptidase Y (Saccharomyces cerevisiae), P00729 (parent)
# chain: MKAFTSLLCGLGLSTTLAKAISLQRPLGLDKDVLLQAAEKFGLDLDLDHLLKELDSNVLDAWAQIEHLYPNQVMSLETSTKPKFPEAIKTKKDWDFVVKNDAIENYQLRVNKIKDPKILGIDPNVTQYTGYLDVEDEDKHFFFWTFESRNDPAKDPVILWLNGGPGCSSLTGLFFELGPSSIGPDLKPIGNPYSWNSNATVIFLDQPVNVGFSYSGSSGVSNTVAAGKDVYNFLELFFDQFPEYVNKGQDFHIAGESYAGHYIPVFASEILSHKDRNFNLTSVLIGNGLTDPLTQYNYYEPMACGEGGEPSVLPSEECSAMEDSLERCLGLIESCYDSQSVWSCVPATIYCNNAQLAPYQRTGRNVYDIRKDCEGGNLCYPTLQDIDDYLNQDYVKEAVGAEVDHYESCNFDINRNFLFAGDWMKPYHTAVTDLLNQDLPILVYAGDKDFICNWLGNKAWTDVLPWKYDEEFASQKVRNWTASITDEVAGEVKSYKHFTYLRVFNGGHMVPFDVPENALSMVNEWIHGGFSL
# partner: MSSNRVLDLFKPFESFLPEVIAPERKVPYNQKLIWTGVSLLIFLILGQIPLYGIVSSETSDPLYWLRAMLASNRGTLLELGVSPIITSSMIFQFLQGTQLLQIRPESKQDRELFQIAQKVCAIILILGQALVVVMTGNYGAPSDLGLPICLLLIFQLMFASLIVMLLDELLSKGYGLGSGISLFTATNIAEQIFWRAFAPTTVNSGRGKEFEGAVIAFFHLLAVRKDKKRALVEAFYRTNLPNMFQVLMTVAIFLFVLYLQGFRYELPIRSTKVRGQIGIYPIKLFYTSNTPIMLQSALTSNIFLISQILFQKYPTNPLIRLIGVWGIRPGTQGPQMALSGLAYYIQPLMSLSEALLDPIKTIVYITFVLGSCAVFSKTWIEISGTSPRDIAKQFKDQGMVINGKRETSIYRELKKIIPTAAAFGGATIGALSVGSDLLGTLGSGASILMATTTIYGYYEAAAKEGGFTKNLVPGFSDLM
# Variants of: B1
# Conditions: with sc61a_yeast SEC61, P32915
row,Variant,effect of a mutation on the interaction
1,MKAFTSLLCGLGLSTTLAKAISLQRPLGLDKDVLLQAAEKFGLDLDLDHLLKELDSNVLDAWAQIEHLYPNQVMSLETSTKPKFPEAIKTKKDWDFVVKNDAIENYQLRVNKIKDPKILGIDPNVTQYTGYLDVEDEDKHFFFWTFESRNDPAKDPVILWLNGGPGCSSLTGLFFELGPSSIGPDLKPIGNPYSWNSNATVIFLDQPVNVGFSYSGSSGVSNTVAAGKDVYNFLELFFDQFPEYVNKGQDFHIARESYAGHYIPVFASEILSHKDRNFNLTSVLIGNGLTDPLTQYNYYEPMACGEGGEPSVLPSEECSAMEDSLERCLGLIESCYDSQSVWSCVPATIYCNNAQLAPYQRTGRNVYDIRKDCEGGNLCYPTLQDIDDYLNQDYVKEAVGAEVDHYESCNFDINRNFLFAGDWMKPYHTAVTDLLNQDLPILVYAGDKDFICNWLGNKAWTDVLPWKYDEEFASQKVRNWTASITDEVAGEVKSYKHFTYLRVFNGGHMVPFDVPENALSMVNEWIHGGFSL [G255R],increasing interaction
